Assay results as given in patent US7501267B2, “Gene sequence of L-rhamnose isomerase having new catalytic function and use thereof” (Rare Sugar Production Technical Research Laboratories, LLC, priority 2003, dated 2009).
Where two headings read alike, the source gives them in different places.

Tests used:
[1] = test system: L-rhamnose isomerase produced by Pseudomonas stutzerii LL172; assay: Effect of a chelating agent or metal ion on L-rhamnose isomerase activity; type: biochemical; conditions: for Effect of a chelating agent on activity: coexisting during the measurement of activity
[2] = test system: L-rhamnose isomerase produced by Pseudomonas stutzerii LL172; conditions: Non-Patent Document 3, cited from earlier work; for Effect of a chelating agent on activity: coexisting during the measurement of activity
[3] = substrate: OC[C@H]1OC(O)[C@H](O)[C@H](O)[C@@H]1O; assay: Km and Vmax of purified L-rhamnose isomerase for a variety of substrates; type: biochemical, Pseudomonas stutzeri; conditions: other: purified enzyme without immobilizing; pH 7.0
Description: (§1) An enzyme was obtained with the same conditions as those of Example 5. The measurement of Km and Vmax was carried out using the enzyme without immobilizing.
(§2) The cells were washed twice with 0.05 M sodium phosphate buffer (pH 7.0). The washed cells were ground with alumina powder and subjected to centrifugation to remove insoluble substances together with alumina powder, whereby a crude enzyme solution was obtained. The obtained crude enzyme solution was subjected to affinity chromatography using an Ni-NTA column to purify the enzyme, whereby a pure enzyme was obtained. After the enzyme was dialyzed against ultrapure water, lyophilization was carried out, whereby pure powder enzyme was obtained. By allowing 20 mg of the enzyme to be adsorbed on 1 g of Chitopearl resin, immobilized enzyme was prepared.

[4] = substrate: OC[C@H]1OC(O)[C@@H](O)[C@H](O)[C@@H]1O; assay: as above; type: biochemical, Pseudomonas stutzeri; conditions: other: purified enzyme without immobilizing; pH 7.0
Description: as §1, §2

[5] = substrate: OC[C@@H]1OC(O)[C@H](O)[C@H](O)[C@H]1O; assay: as above; type: biochemical, Pseudomonas stutzeri; conditions: other: purified enzyme without immobilizing; pH 7.0
Description: as §1, §2

[6] = substrate: C[C@@H]1OC(O)[C@H](O)[C@H](O)[C@H]1O; assay: as above; type: biochemical, Pseudomonas stutzeri; conditions: other: purified enzyme without immobilizing; pH 7.0
Description: as §1, §2

[7] = cited from earlier work
[8] = substrate: OC1OC[C@@H](O)[C@@H](O)[C@H]1O; assay: cells, lysate or membranes named; conditions: other: purified enzyme without immobilizing; pH 7.0
[9] = substrate: OC1OC[C@H](O)[C@@H](O)[C@H]1O; assay: cells, lysate or membranes named; conditions: other: purified enzyme without immobilizing; pH 7.0
[10] = substrate: OC1OC[C@H](O)[C@H](O)[C@H]1O; assay: cells, lysate or membranes named; conditions: other: purified enzyme without immobilizing; pH 7.0

Molecule: O=C(O)CN(CCOCCOCCN(CC(=O)O)CC(=O)O)CC(=O)O [EGTA]
- Effect of a chelating agent on activity [1]: hardly inhibited
- Effect of a chelating agent on activity [2]: hardly inhibited

Molecule: O=C(O)CN(CCN(CC(=O)O)CC(=O)O)CC(=O)O [EDTA]
- Effect of a chelating agent on activity [1]: hardly inhibited
- Effect of a chelating agent on activity [2]: hardly inhibited

Molecule: [Co+2] [cobalt ion]
- Activity inhibited by metal ion ([1]; 1 mM): About 30%
- Activity inhibited by metal ion ([2]; 1 mM): About 30%

B1: L-rhamnose isomerase derived from P. stutzeri (Stutzerimonas stutzeri) (protein)
chain: MAEFRIAQDVVARENDRRASALKEDYEALGANLARRGVDIEAVTAKVEKFFVAVPSWGVGTGGTRFARFPGTGEPRGIFDKLDDCAVIQQLTRATPNVSLHIPWDKADPKELKARGDALGLGFDAMNSNTFSDAPGQAHSYKYGSLSHTDAATRAQAVEHNLECIEIGKAIGSKALTVWIGDGSNFPGQSNFTRAFERYLSAMAEIYKGLPDDWKLFSEHKMYEPAFYSTVVQDWGTNYLIAQTLGPKAQCLVDLGHHAPNTNIEMIVARLIQFGKLGGFHFNDSKYGDDDLDAGAIEPYRLFLVFNELVDAEARGVKGFHPAHMIDQSHNVTDPIESLINSANEIRRAYAQALLVDRAALSGYQEDNDALMATETLKRAYRTDVEPILAEARRRTGGAVDPVATYRASGYRARVAAERPASVAGGGGII
- Km [3]: 42 mM
- Vmax [3]: 6.76 µmol/min/mg
- Km [4]: 71 mM
- Vmax [4]: 0.01 µmol/min/mg
- Km [5]: 55.5 mM
- Vmax [5]: 139 µmol/min/mg
- Km [6]: 11.9 mM
- Vmax [6]: 238 µmol/min/mg
- Temperature stability, activity remaining ([7]; 10 min): ≥ 90%
- Optimal pH ([7]; Non-Patent Document 3): 9.0
- Optimal temperature ([7]; Non-Patent Document 3): 60 °C
- Km [8]: 38.5 mM
- Vmax [8]: 21.4 µmol/min/mg
- Km [9]: 61.7 mM
- Vmax [9]: 123 µmol/min/mg
- Km [10]: 2.35 mM
- Vmax [10]: 0.061 µmol/min/mg
- Optimal pH: 9.0
- Optimal temperature: 60 °C
- Temperature stability, activity remaining (10 min): ≥ 90%
